Data from patent US20150246947A1 (BAXALTA, published 2015).
“And” between values parts separate entries of the source, which are not always exact repeats. Identical values can stand only once. Non-standard residues stand in square brackets, D forms with d.

T1: human Protein S (UniProt P07225 42-676)
T1 chain: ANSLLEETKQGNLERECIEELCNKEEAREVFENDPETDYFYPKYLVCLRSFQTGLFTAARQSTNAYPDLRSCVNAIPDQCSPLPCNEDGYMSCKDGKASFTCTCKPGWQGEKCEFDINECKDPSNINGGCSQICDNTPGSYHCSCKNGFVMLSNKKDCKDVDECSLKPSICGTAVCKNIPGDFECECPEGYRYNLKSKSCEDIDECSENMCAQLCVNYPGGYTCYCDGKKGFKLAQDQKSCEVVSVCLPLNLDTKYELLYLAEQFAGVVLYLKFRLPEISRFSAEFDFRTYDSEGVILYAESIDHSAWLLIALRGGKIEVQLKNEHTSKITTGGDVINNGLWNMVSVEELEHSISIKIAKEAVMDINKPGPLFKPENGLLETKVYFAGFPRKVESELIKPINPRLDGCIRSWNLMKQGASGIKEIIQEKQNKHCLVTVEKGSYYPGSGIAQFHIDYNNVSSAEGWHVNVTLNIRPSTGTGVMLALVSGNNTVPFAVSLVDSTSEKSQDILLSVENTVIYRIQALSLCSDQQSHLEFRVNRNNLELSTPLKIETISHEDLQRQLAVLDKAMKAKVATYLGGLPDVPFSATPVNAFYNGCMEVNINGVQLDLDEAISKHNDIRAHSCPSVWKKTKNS


Target: T1, human Protein S
Experiment: LANCE competition
In short: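 This homogeneous time-resolved FRET competition assay (LANCE) used europium-labelled Protein S, ULight-labelled streptavidin and a biotinylated tracer peptide, with unlabelled test peptide titrated in three-fold steps. Final concentrations were 10 nM Protein S, 100 nM streptavidin and 300 nM tracer in 50 µl (or 2 nM Protein S and 60 nM tracer on a Tecan F500). Samples were incubated 1 hour at room temperature and read at Ex 340 nm, Em 665 nm. IC50 came from non-linear regression of the 665 nm signals.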

IC50 | Binder
5.4 nM | Ac-TGLVSAGWYDYNFDQYREFT-NH2 [JBS2847]
4.4 nM | Ac-TGLVSAGWYDYNNDHYREFT-NH2 [JBS2825]
3.1 nM | Ac-TGLVSAGWYDYNFDVYREFT-NH2 [JBS2903]
6.8 nM | Ac-TGLVSAGWYDYNFDHYEEFT-NH2 [JBS2752]
5.7 nM | Ac-TGLVSAGWYDYNMDHYREFT-NH2 [JBS2806]
27 nM | Ac-PGHVSAGWYDYNFDHYREFT-NH2 [JBS2628]
12.5 nM | Ac-GGHVSAGWYDYNADHYREFT-NH2 [JBS2684]
5.2 nM | Ac-TGLVSAGWYDYNFDHYHEFT-NH2 [JBS2770]
30 nM | Ac-TAHVSAGWYDYNFDDYREFT-NH2 [JBS2679]
1.5 nM | Ac-EGYVSAGWYDYNTDTYYEFE-NH2 [JBS3222]
4 nM and 5.6 nM | Ac-MGLVSAGWYDYNFDHYREFT-NH2 [JBS2794]
5.6 nM | Ac-GAHVSAGWYDYNFDLYREFT-NH2 [JBS2683]
28.4 nM | Ac-TGHVSAGWYDYNFDHYSEFT-NH2 [JBS2663]
7.5 nM | Ac-GGHVSAGWYDYNFDLYREFT-NH2 [JBS2682]
15.5 nM | Ac-FGHVSAGWYDYNFDHYREFT-NH2 [JBS2610]
13.5 nM | Ac-TGLVSAGWYNYNFDHYREFT-NH2 [JBS2823]
18.7 nM | Ac-GAHVSAGWYDYNFDHYREFT-NH2 [JBS2681]
1810 nM | Ac-TGHVSAGWYDYNFDHYRE-NH2 [JBS2678]
25.1 nM | Ac-TGSVSAGWYDYNFDHYREFT-NH2 [JBS2650]
792 nM | Ac-TGLVSAGWYDYN[dA]DHYREFT-NH2 (SMILES CC(=O)N[C@H](C(=O)NCC(=O)N[C@@H](CC(C)C)C(=O)N[C@H](C(=O)N[C@@H](CO)C(=O)N[C@@H](C)C(=O)NCC(=O)N[C@@H](Cc1c[nH]c2ccccc12)C(=O)N[C@@H](Cc1ccc(O)cc1)C(=O)N[C@@H](CC(=O)O)C(=O)N[C@@H](Cc1ccc(O)cc1)C(=O)N[C@@H](CC(N)=O)C(=O)N[C@H](C)C(=O)N[C@@H](CC(=O)O)C(=O)N[C@@H](Cc1c[nH]cn1)C(=O)N[C@@H](Cc1ccc(O)cc1)C(=O)N[C@@H](CCCNC(=N)N)C(=O)N[C@@H](CCC(=O)O)C(=O)N[C@@H](Cc1ccccc1)C(=O)N[C@H](C(N)=O)[C@@H](C)O)C(C)C)[C@@H](C)O) [JBS2734]
12.5 nM | Ac-TFHVSAGWYDYNFDHYREFT-NH2 [JBS2611]
6 nM | Ac-TAHVSAGWYDYNFDLYREFT-NH2 [JBS2680]
